The record followed here is patent publication US20250109193A1 (FLAGSHIP PIONEERING INNOVATIONS VI, published 2025).

One assay concerns the target T1, mouse TSLP (mouse, UniProt Q9JIE6 20-140).
T1 construct: also called mouse TSLP cytokine
T1 sequence (looked up): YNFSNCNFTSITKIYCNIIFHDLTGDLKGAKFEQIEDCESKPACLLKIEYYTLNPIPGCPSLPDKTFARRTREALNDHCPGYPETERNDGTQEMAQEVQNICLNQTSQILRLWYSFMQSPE
The assay is described as follows: direct ELISA: plate coated with 2 µg/mL mouse TSLP, anti-human IgG-HRP, absorbance at 450 nm.

Assay [1] addresses T2, human thymic stromal lymphopoietin (TSLP) (human, UniProt Q969D9 29-159). The assay is described as follows: cell-based or functional assay.
For assay [2], the target named is T3, cynomolgus monkey TSLP (cynomolgus monkey).
T3 chain: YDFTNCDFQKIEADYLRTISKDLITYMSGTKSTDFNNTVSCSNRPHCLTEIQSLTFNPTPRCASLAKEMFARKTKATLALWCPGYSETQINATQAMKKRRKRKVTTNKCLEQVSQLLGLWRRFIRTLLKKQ
The assay is described as follows: cell-based or functional assay.

Assay [3] concerns the target T2, human thymic stromal lymphopoietin …. The assay is described as follows: indirect ELISA, coated human TSLP; 95% CI in brackets.
Description: (§1) The next day, the plates were washed three times with ELISA wash buffer and blocked with ELISA assay diluent B (BioLegend) for one hour at room temperature (RT). […] Antibody binding was assessed using an 8-point titration curve in triplicates (1:3 serial dilution starting at 10 μg/mL). The plate was washed three times with ELISA wash buffer, and HRP-conjugated anti-human IgG-HRP secondary antibody (Jackson ImmunoResearch Laboratories, Inc.) was added to wells at a 1:5000 dilution in 1×ELISA assay diluent. Secondary antibody was added to detect binding of the primary antibody to the antigen. The plate was incubated for 30 minutes at room temperature with the secondary detection antibody, then the plates were washed three times with ELISA wash buffer and developed with TMB substrate solution (Invitrogen, Waltham, MA). The HRP enzymatic reaction was stopped after about 1 minute with acidic stop solution (Invitrogen), and the absorbance at 450 nm on a Biotek plate reader.
(§2) The EC₅₀ values were calculated using Graphpad Prism 9.2.0 by fitting a four-parameter non-linear regression curve to the average absorbance values of three technical replicates per concentration with three independent experiments. […] N=4 independent experiments with 3 technical replicates. […] N=3 independent experiments with 3 technical replicates.
Assay [4] deals with T3, cynomolgus monkey TSLP. The assay is described as follows: indirect ELISA, coated cyno TSLP; 95% CI in brackets.
Description: as §1, §2
Another assay addresses T4, human IL-7 (human, UniProt P13232 26-177).
T4 construct: also called hIL-7
T4 sequence (looked up): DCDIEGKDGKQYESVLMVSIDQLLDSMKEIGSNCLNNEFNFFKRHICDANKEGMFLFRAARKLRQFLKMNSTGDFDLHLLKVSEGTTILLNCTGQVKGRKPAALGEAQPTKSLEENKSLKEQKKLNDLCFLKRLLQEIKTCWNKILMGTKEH
The experiment in a line: direct ELISA: plate coated with 2 µg/mL human IL-7, anti-human IgG-HRP, absorbance at 450 nm.

Description for mouse TSLP: as §1, §2

B1: AB-2b (antibody, human IgG1, lambda)
heavy: QMQLVESGGGVVQPGRSLRLSCAASGFTFRTYGMHWVRQAPGKGLEWVAVVWYDGSYTHYADSVKGRFTITRDNSKNTLNLQMNSLRAEDTAVYYCARSPQWEEIFEAMDIWGQGTMVTVSSASTKGPSVFPLAPSSKSTSGGTAALGCLVKDYFPEPVTVSWNSGALTSGVHTFPAVLQSSGLYSLSSVVTVPSSSLGTQTYICNVNHKPSNTKVDKRVEPKSCDKTHTCPPCPAPELLGGPSVFLFPPKPKDTLYITREPEVTCVVVDVSHEDPEVKFNWYVDGVEVHNAKTKPREEQYNSTYRVVSVLTVLHQDWLNGKEYKCKVSNKALPAPIEKTISKAKGQPREPQVYTLPPSREEMTKNQVSLTCLVKGFYPSDIAVEWESNGQPENNYKTTPPVLDSDGSFFLYSKLTVDKSRWQQGNVFSCSVMHEALHNHYTQKSLSLSPGK
light: SYVLTQPPSVSVAPGQTARITCGGNNIGSKSVHWYQQKPGQAPVLVVYDDSDRPSWIPERFSGSNSGNTATLTISRGEAGDEADYYCQIWDSSSSLVVFGGGTKLTVLGQPKAAPSVTLFPPSSEELQANKATLVCLISDFYPGAVTVAWKADSSPVKAGVETTTPSKQSNNKYAASSYLSLTPEQWKSHRSYSCQVTHEGSTVEKTVAPTECS
Turning to B1, in the assay with mouse TSLP, the binding result is listed as “no binding (tested: about 5 µg/ml)”. In addition, the “IC50, human TSLPR/IL-7Rα Ba/F3 STAT5-luciferase assay” value in assay [1] was 0.03 µg/mL. Besides, the “IC50, cyno TSLPR/IL-7Rα Ba/F3 STAT5-luciferase assay” value with cynomolgus monkey TSLP [2] is 0.04 µg/mL. In addition, in assay [3], a half-maximal effect (EC50) was put at 0.03 µg/mL, the 80% effect level (EC80) was put at 0.1 µg/mL and the EC90 stood at 0.18 µg/mL. In the assay with cynomolgus monkey TSLP [4], this molecule had an EC80 of 0.1 µg/mL.

B2: Reference Antibody (antibody, human IgG2, lambda, V domains shown)
VH: QMQLVESGGGVVQPGRSLRLSCAASGFTFRTYGMHWVRQAPGKGLEWVAVIWYDGSNKHYADSVKGRFTITRDNSKNTLNLQMNSLRAEDTAVYYCARAPQWELVHEAFDIWGQGTMVTVSS
VL: SYVLTQPPSVSVAPGQTARITCGGNNLGSKSVHWYQQKPGQAPVLVVYDDSDRPSWIPERFSGSNSGNTATLTISRGEAGDEADYYCQVWDSSSDHVVFGGGTKLTVLG
notes: Comparator anti-TSLP antibody with an IgG2 heavy chain constant domain and lambda light chain
With B2, the binding result in the assay with human IL-7 and in the assay with mouse TSLP was “no binding (tested: about 5 µg/ml)” in each case.
